Experimental findings from patent EP0556111A1 are described below.

The target of experiment [1] is reagent Mα2-3/peroxidase, obtained by classical chemical coupling.
Experiment [2] has as its target hybrid F(ab)₂-PhoA (complex hybrid protein alkaline phosphatase/F(ab)₂ of antibody Mα2-3) (E. coli) [phosphatase: P00634].

On to toxin alpha (from UniProt P01426), for which the IC50 is 0.009 µM in experiment [1] and 0.02 µM in experiment [2].

In general, IC50 refers to the concentration that inhibits the measured activity by half. High values mean weaker potency, low ones greater potency.
